Experimental data taken from PMC9851988.

Molecular target: His7-SUMO-Arc-C11^CFAS (not stated | E. coli)
Test: BLI

Substance: anhydrotrypsin (enzyme)
- equilibrium response signal relative to His7-SUMO-Arc-C11^CFAS/R11A: 6 fold
